Laboratory results as given in patent publication US20240165282A1, “CONFORMATIONAL CONSTRAINED SOMATOSTATIN RECEPTOR 3 PEPTIDE LIGANDS AND THEIR CONJUGATES AND USES THEREOF” (STARGET PHARMA LTD., priority 2021, published 2024).
*1 amine or outer side, *2 acyl side, *3 side chain or, on linkers, in order; H or OH if unused. Bridges are numbered along the chain shown (N, C = ends). Where no end group is shown, it is not given here. [ ]: non-standard residue; d: D form. The star is where a group is joined. DOTA = O=C(O)CN1CCN(CC(=O)O)CCN(CC(=O)*)CCN(CC(=O)O)CC1; N(2-mercaptoethyl)Gly = O=C(CN(CCS[*:3])[*:1])[*:2]; NTEG = not defined here; Aoc = NCCCCCCCC(=O)O; GABA = NCCCC(=O)O

What was measured:
Test in all cases: 125I-Tyr11-SRIF-14 displacement
[1] = molecular target: human cloned somatostatin receptor 2 (human) (UniProt P30874)
Sequence of human cloned somatostatin receptor 2 (human) (P30874 whole entry): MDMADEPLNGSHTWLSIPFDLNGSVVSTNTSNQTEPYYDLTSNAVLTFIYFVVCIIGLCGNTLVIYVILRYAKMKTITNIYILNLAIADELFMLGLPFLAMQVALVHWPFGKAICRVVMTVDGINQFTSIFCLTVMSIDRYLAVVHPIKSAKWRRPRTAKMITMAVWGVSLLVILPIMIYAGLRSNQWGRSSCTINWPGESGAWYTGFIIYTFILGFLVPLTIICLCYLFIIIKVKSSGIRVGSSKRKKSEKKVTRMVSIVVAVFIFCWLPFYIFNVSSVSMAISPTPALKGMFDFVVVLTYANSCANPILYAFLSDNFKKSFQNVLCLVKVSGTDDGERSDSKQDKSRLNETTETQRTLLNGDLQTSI

[2] = molecular target: human cloned somatostatin receptor 1 (human) (UniProt P30872)
Sequence of human cloned somatostatin receptor 1 (human) (P30872 whole entry): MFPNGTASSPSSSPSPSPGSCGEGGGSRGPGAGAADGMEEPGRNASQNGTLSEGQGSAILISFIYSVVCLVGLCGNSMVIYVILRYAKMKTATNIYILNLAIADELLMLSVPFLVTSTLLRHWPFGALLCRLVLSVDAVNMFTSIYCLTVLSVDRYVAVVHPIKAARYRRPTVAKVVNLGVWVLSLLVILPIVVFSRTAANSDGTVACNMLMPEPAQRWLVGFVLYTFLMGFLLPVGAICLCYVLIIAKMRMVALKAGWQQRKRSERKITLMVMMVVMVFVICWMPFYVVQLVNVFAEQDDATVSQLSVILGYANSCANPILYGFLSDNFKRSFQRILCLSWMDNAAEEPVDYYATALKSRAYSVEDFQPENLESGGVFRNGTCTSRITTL

[3] = molecular target: human cloned somatostatin receptor 4 (human) (UniProt P31391)
Sequence of human cloned somatostatin receptor 4 (human) (P31391 whole entry): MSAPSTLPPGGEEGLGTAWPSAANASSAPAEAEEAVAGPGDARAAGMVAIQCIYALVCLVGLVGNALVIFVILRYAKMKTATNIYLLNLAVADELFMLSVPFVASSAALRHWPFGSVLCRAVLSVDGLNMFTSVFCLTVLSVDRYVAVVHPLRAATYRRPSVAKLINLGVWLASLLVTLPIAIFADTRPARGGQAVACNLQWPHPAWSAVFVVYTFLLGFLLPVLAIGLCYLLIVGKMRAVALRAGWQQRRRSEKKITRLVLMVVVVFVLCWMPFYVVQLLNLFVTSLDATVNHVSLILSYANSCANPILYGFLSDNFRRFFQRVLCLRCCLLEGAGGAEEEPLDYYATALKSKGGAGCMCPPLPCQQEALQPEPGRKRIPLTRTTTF

[4] = molecular target: human cloned somatostatin receptor 3 (human) (UniProt P32745)
Sequence of human cloned somatostatin receptor 3 (human) (P32745 whole entry): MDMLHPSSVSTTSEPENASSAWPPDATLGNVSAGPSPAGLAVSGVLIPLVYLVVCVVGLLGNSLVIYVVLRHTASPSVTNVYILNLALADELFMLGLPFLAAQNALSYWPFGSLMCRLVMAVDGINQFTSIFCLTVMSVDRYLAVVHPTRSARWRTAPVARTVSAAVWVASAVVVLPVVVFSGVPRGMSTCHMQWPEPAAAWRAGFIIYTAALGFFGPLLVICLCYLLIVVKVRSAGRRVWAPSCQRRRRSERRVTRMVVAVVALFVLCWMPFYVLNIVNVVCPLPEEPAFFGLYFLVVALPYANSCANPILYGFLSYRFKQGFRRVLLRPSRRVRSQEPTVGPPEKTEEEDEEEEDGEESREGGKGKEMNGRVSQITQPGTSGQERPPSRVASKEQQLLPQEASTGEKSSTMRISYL

[5] = molecular target: human cloned somatostatin receptor 5 (human) (UniProt P35346)
Sequence of human cloned somatostatin receptor 5 (human) (P35346 whole entry): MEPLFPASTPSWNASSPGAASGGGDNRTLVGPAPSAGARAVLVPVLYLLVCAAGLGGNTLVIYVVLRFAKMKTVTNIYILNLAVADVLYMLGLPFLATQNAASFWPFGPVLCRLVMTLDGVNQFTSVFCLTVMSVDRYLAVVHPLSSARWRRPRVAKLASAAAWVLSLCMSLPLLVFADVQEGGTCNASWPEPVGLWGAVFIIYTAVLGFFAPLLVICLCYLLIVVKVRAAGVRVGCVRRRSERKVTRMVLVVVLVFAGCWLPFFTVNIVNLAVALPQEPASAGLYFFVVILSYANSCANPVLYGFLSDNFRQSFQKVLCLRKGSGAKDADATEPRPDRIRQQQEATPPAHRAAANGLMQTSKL

% displacement at 1 nM [1] [%]	% displacement at 10 nM [1] [%]	% displacement at 1 nM [2] [%]	% displacement at 10 nM [2] [%]	% displacement at 1 nM [3] [%]	% displacement at 10 nM [3] [%]	% displacement at 1 nM [4] [%]	% displacement at 10 nM [4] [%]	% displacement at 1 nM [5] [%]	% displacement at 10 nM [5] [%]	IC50 [4] [nM]	Ki [4] [nM]	IC50 [1] [nM]	Ki [1] [nM]	IC50 [2] [nM]	Ki [2] [nM]	IC50 [5] [nM]	Ki [5] [nM]	Binder
0	0	0	10	0	0	64	93	0	13	–	–	–	–	–	–	–	–	{DOTA}-A[dF]RCF[dW]KTF[N(2-mercaptoethyl)Gly]-NH2 (disulfide 4-10; SMILES C[C@H](NC(=O)CN1CCN(CC(=O)O)CCN(CC(=O)O)CCN(CC(=O)O)CC1)C(=O)N[C@H](Cc1ccccc1)C(=O)N[C@@H](CCCNC(=N)N)C(=O)N[C@H]1CSSCCN(CC(N)=O)C(=O)[C@H](Cc2ccccc2)NC(=O)[C@H]([C@@H](C)O)NC(=O)[C@H](CCCCN)NC(=O)[C@@H](Cc2c[nH]c3ccccc23)NC(=O)[C@H](Cc2ccccc2)NC1=O) [SEQ ID NO: 12]
0	0	2	19	0	0	47	88	0	0	–	–	–	–	–	–	–	–	{DOTA}-G[dF]RCF[dW]KTF[N(2-mercaptoethyl)Gly]-NH2 (disulfide 4-10; SMILES C[C@@H](O)[C@@H]1NC(=O)[C@H](CCCCN)NC(=O)[C@@H](Cc2c[nH]c3ccccc23)NC(=O)[C@H](Cc2ccccc2)NC(=O)[C@@H](NC(=O)[C@H](CCCNC(=N)N)NC(=O)[C@@H](Cc2ccccc2)NC(=O)CNC(=O)CN2CCN(CC(=O)O)CCN(CC(=O)O)CCN(CC(=O)O)CC2)CSSCCN(CC(N)=O)C(=O)[C@H](Cc2ccccc2)NC1=O) [SEQ ID NO: 11]
–	–	–	–	–	–	66	88	–	–	–	–	–	–	–	–	–	–	{DOTA}-[dF]KCY[dW]KTF[N(2-mercaptoethyl)Gly]-NH2 (disulfide 3-9; SMILES C[C@@H](O)[C@@H]1NC(=O)[C@H](CCCCN)NC(=O)[C@@H](Cc2c[nH]c3ccccc23)NC(=O)[C@H](Cc2ccc(O)cc2)NC(=O)[C@@H](NC(=O)[C@H](CCCCN)NC(=O)[C@@H](Cc2ccccc2)NC(=O)CN2CCN(CC(=O)O)CCN(CC(=O)O)CCN(CC(=O)O)CC2)CSSCCN(CC(N)=O)C(=O)[C@H](Cc2ccccc2)NC1=O) [SEQ ID NO: 24]
–	–	–	–	–	–	27	75	–	–	2.4	–	–	–	–	–	–	–	{DOTA}-[dF]KCF[dW]KTF[NTEG]-NH2 (disulfide 3-9; reading uncertain; also: Ga chelated by DOTA) [SEQ ID NO: 10]
1	0	6	18	0	0	49	87	0	0	–	–	–	–	–	–	–	–	{DOTA-Aoc}-[dF]RCF[dW]KTF[N(2-mercaptoethyl)Gly]-NH2 (disulfide 3-9) [SEQ ID NO: 15]
6	2	0	5	0	0	47	88	0	3	–	–	–	–	–	–	–	–	K[dF]RCF[dW]KTF[N(2-mercaptoethyl)Gly]-NH2 (disulfide 4-10; not fully specified (residue 1, N-terminus); printed as (DOTA)2-Lys1-D-Phe2-Arg3-Cys4-Phe5-D-Trp6-Lys7-Thr8-Phe9-NTEG10-NH2 (cyclo 3-9); also: (DOTA)2 on Lys1, sites not given here) [SEQ ID NO: 16]

Second part, the binder before the results:

Binder	% displacement at 1 nM [1] [%]	% displacement at 10 nM [1] [%]	% displacement at 1 nM [2] [%]	% displacement at 10 nM [2] [%]	% displacement at 1 nM [3] [%]	% displacement at 10 nM [3] [%]	% displacement at 1 nM [4] [%]	% displacement at 10 nM [4] [%]	% displacement at 1 nM [5] [%]	% displacement at 10 nM [5] [%]	IC50 [4] [nM]	Ki [4] [nM]	IC50 [1] [nM]	Ki [1] [nM]	IC50 [2] [nM]	Ki [2] [nM]	IC50 [5] [nM]	Ki [5] [nM]
{DOTA-GABA}-[dF]RCF[dW]KTF[N(2-mercaptoethyl)Gly]-NH2 (disulfide 3-9; also: Ga complex of DOTA) [SEQ ID NO: 8]	0	10	0	10	5	4	61	88	0	15	–	–	–	–	–	–	–	–
H-[dF]KCF[dW]KTF[N(2-mercaptoethyl)Gly]-NH2 (disulfide 3-9; SMILES C[C@@H](O)[C@@H]1NC(=O)[C@H](CCCCN)NC(=O)[C@@H](Cc2c[nH]c3ccccc23)NC(=O)[C@H](Cc2ccccc2)NC(=O)[C@@H](NC(=O)[C@H](CCCCN)NC(=O)[C@H](N)Cc2ccccc2)CSSCCN(CC(N)=O)C(=O)[C@H](Cc2ccccc2)NC1=O) [SEQ ID NO: 2]	–	–	–	–	–	–	–	–	–	–	0.73	0.25	–	–	–	–	–	–
{DOTA}-[dF]RCF[dW]KTF[N(2-mercaptoethyl)Gly]-NH2 (disulfide 3-9; also: Lu complex of DOTA) [SEQ ID NO: 6]	–	–	–	–	–	–	–	–	–	–	0.9	–	210	110	310	260	86	48
{DOTA}-[dF]RCF[dW]KTF[N(2-mercaptoethyl)Gly]-NH2 (disulfide 3-9; also: Cu complex of DOTA) [SEQ ID NO: 5]	–	–	–	–	–	–	–	–	–	–	0.9	–	420	220	780	640	150	82
{DOTA}-[dF]KCF[dW]KTF[N(2-mercaptoethyl)Gly]-NH2 (disulfide 3-9; SMILES C[C@@H](O)[C@@H]1NC(=O)[C@H](CCCCN)NC(=O)[C@@H](Cc2c[nH]c3ccccc23)NC(=O)[C@H](Cc2ccccc2)NC(=O)[C@@H](NC(=O)[C@H](CCCCN)NC(=O)[C@@H](Cc2ccccc2)NC(=O)CN2CCN(CC(=O)O)CCN(CC(=O)O)CCN(CC(=O)O)CC2)CSSCCN(CC(N)=O)C(=O)[C@H](Cc2ccccc2)NC1=O) [SEQ ID NO: 9]	0	0	4	10	0	0	59	91	0	12	1	–	–	–	–	–	–	–
H-[dF]RCF[dW]KTF[N(2-mercaptoethyl)Gly]-NH2 (disulfide 3-9; SMILES C[C@@H](O)[C@@H]1NC(=O)[C@H](CCCCN)NC(=O)[C@@H](Cc2c[nH]c3ccccc23)NC(=O)[C@H](Cc2ccccc2)NC(=O)[C@@H](NC(=O)[C@H](CCCNC(=N)N)NC(=O)[C@H](N)Cc2ccccc2)CSSCCN(CC(N)=O)C(=O)[C@H](Cc2ccccc2)NC1=O) [SEQ ID NO: 1]	–	–	–	–	–	–	–	–	–	–	0.43	0.15	390	320	180	150	310	170
